Assay results taken from US20220160874A1.

Target: CNTF receptor expressed on TF-1.CN5a.1 (ATCC CRL-2512) cells (UniProt P26992)
Test: cell-based or functional assay

Chain of UniProt P26992 (P26992 23-342 limits assumed): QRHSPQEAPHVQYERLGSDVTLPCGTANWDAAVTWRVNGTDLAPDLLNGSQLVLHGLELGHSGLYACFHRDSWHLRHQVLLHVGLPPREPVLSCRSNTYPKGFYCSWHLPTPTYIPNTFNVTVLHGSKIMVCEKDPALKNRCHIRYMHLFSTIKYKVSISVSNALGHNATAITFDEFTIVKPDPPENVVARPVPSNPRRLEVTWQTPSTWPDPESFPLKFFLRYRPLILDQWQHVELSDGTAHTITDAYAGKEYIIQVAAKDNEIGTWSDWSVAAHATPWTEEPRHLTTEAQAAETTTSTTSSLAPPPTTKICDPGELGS

Question: For “CNTF control protein (Life Technologies) (ligand)”, which EC50, TF-1.CN5a.1 cell proliferation is on record?
Answer: 0.11 pM
